Changes are numbered by the printed parent chain.
B1: DX239 (antibody, V domains shown)
VH: QVQLQQSGAELVRPGTSVKISCKASGYGFNNYWLGWVKQRPGHGLEWIGDIYPGSGNTYYNENFKGRATLTADKSSTTAYMQVSSLTSEDSAVYFCARGKESFAYWGQGTLVTVSA
VL: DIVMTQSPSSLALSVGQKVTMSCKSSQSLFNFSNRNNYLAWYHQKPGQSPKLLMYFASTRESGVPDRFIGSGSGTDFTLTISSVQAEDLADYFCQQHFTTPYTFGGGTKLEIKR
notes: Parental rodent anti-human MDL-1 monoclonal antibody (not the humanized form); VL of the kappa subclass; also called anti-MDL-1 antibody clone DX239; ATCC PTA-9135
B2: DX240 (antibody, V domains shown)
VH: QVQLLQSGAELVKPGASVKISCKASGYTFTDHAIHWVKQKPEQGLEWIGYISPGDGDIKYNEKFKDKATLTADKSSSIAYMQLNSLTSEDSAVYFCKNFDYDFIFDFWGQGTTLTVSS
VL: DIVMSQSPSSLAVSAGETVTMSCKSSQSLLNSRARKNYLAWYQQKPGQSPKLLIYWASTRESGVPDRFTGSGSGTDFTLTISSVRAEDLAVYYCKQSYNLYTFGGGTKLEIKR
notes: Rodent anti-human MDL-1 monoclonal antibody from a hybridoma; VL of the kappa subclass; also called anti-MDL-1 antibody clone DX240; ATCC PTA-9136
B3: DX233 (antibody, V domains shown)
VH: EVQMQQSGAELVKPGASVKLSCTASGFNIKDTYMHWVKQRPEQGLEWIGRIDPANGITKSDPKFQGKATITADTSSNTAYLQLNSLTSEDTAVYSCAPYSGNYVWFPYWGQGTLVTVSA
VL: DIVMTQSHKFMSTSVGDRVNITCKASQDVGTAVAWYQRKPGKSPQVLIYWASTRHTGVPDRFTGSGSGTDFTLTISNVQSEDLADYFCQQYRSYPLTFGAGTKLELKR
notes: Rodent anti-human MDL-1 monoclonal antibody from a hybridoma; VL of the kappa subclass; also called anti-MDL-1 antibody clone DX233
B4: DX244 (antibody, V domains shown)
VH: QIQLVQSGPELKKPGETVKISCKASGYTFTIYAMNWVKQAPGKGLEWMGWINTDTGEPTYADDFKGRFAFSLETSASTAYLQINNLKNEDMATYFCARSSEVFYDYRFDYWGQGTALTVSS
VL: DIQMTQSPSSLSASLGERVSLTCRASQDIGSSLNWLQQEPDGTIKRLIYATSNLDSGVPKRFSGSRSGSDYSLTISSLESEDFVHYYCLQYASSPFTFGSGTKLEIKR
notes: Parental rodent anti-human MDL-1 monoclonal antibody (not the humanized form); VL of the kappa subclass; also called anti-MDL-1 antibody clone DX244; ATCC PTA-8375
B5: DX246 (antibody, V domains shown)
VH: QVTLKESGPGILKPSQTLSLTCSFSGFSLSTSGMNVGWIRQPSGKGLEWLAHIWWDDDKYYNPSLKSQLTISKDTSRNQVFLKITSVDTADTATYYCARRAFYGSNYDYYAMDYWGQGTSVTVSS
VL: ENVLTQSPAIMSASPGEKVTMTCSVSSSVSYIHWYQQKSSTSPKLWIYDTSKLASGVPGRFSGSGSGNSYSLTISSMEAEDVATYYCFQGSGYPLTFGAGTKLELKR
notes: Rodent anti-human MDL-1 monoclonal antibody from a hybridoma; VL of the kappa subclass; also called anti-MDL-1 antibody clone DX246; ATCC PTA-8376
B6: DX241 (antibody, V domains shown)
VH: DVKLVESGGGLVKLGGSLKLSCAASGFTFSSYYMSWVRQTPDKRLELVAAINSNGGTTYYPDTVKGRFTISRDNAKNTLYLQMSSLKPEDTALFYCVRDGEFGHYFDYWGQGTTLTVSS
VL: SIVMTQTPKFLLVSAGDRVTITCKASQSVNNDVAWYQQKPGQSPKLLIYYASNRYTGVPDRFTGSGYGTDFTFTISTVQAEDLAVYFCQQDYNSPLTFGAGTKLELKR
notes: Rodent anti-human MDL-1 monoclonal antibody from a hybridoma; VL of the kappa subclass; also called anti-MDL-1 antibody clone DX241; ATCC PTA-8374
B7: DX230 (antibody, V domains shown)
VH: EVQLVESGGDLVKPGGSLKLSCAASGFAFSNYDMSWVRQTPEKRLEWVAYISGGGGTTYYSDTVKGRFTISRDNAKNTLYLQMSSLKSEDTAMYYCVRHAVYYGKPYWGQGTTLTVSS
VL: DIVLTQSPPSLAVSLGQRATVSCRASESVEHYGTGLMQWYQQKPGQPPRLLIYAASNVESGVPARFSGSGSGTDFSLNIHPVEEDDIAMYFCQQSRKVPWTFGGGTKLEIKR
notes: Rodent anti-human MDL-1 monoclonal antibody from a hybridoma; VL of the kappa subclass; also called anti-MDL-1 antibody clone DX230; ATCC PTA-8373
B8: DX297 (antibody, V domains shown)
VH: B7 VH with A23T, K76R, M93I, V97A, A100P, V101I
VL: B7 VL with P9A, V21I, G35S, S69G, S95N

target: T1, hMDL-1-hIG (human, UniProt Q9NY25 28-188); test: BIAcore SPR; mAb as capture reagent, hMDL-1-hIG as analyte
T1 construct: Fusion of human MDL-1 with human Ig used in the BIAcore assay; MDL-1 is a type II membrane protein, so the Ig part may stand N-terminal; also called MDL-1-hIg ligand; not shown: human Ig part (hIG)
T1 sequence: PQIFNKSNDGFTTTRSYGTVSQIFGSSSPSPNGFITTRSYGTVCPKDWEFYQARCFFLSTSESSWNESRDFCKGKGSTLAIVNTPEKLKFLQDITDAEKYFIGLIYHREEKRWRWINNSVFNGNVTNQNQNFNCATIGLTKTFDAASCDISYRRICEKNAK
Protocol: (§1) Determining the Equilibrium Dissociation Constant (K_d) for Humanized Anti-Human MDL-1 Antibodies Using BIAcore Technology BIAcore determinations are performed essentially as described at Example 4 of co-pending, commonly assigned U.S. patent application Ser. No. 11/511,635 (filed 29 Aug. 2006). Briefly, ligands (anti-MDL-1-hIg) are immobilized on a BIAcore CM5 sensor chip using standard amine-coupling procedure. Kinetic constants for the various interactions are determined using BIAevaluation software 3.1. The K_d is determined using the calculated dissociation and association rate constants.
(§2) For antibodies DX233, DX239, and DX240, the antibodies were used as the capture reagent and the MDL-1-hIg ligand was used as the analyte. Affinity measurements for DX233, DX239, and DX240 were as follows.

Point of comparison: B3, koff 0.000147 s⁻¹. Against it:
- B1 — 2.3-fold higher, 0.000336 s⁻¹
- B2 — 2.2-fold higher, 0.000325 s⁻¹

Point of comparison: B1, kon 10000 M⁻¹ s⁻¹. Against it:
- B2 — within 1.5-fold, 8000 M⁻¹ s⁻¹
- B3 — 2-fold higher, 20000 M⁻¹ s⁻¹

target: T2, human MDL-1 (human, UniProt Q9NY25 1-188); test: cell-based or functional assay
T2 sequence: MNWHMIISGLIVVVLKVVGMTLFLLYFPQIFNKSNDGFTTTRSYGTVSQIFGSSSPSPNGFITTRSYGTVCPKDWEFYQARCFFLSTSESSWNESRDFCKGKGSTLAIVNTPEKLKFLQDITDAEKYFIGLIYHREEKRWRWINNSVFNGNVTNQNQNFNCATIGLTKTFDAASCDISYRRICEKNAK

Point of comparison: B2, “secreted beta-hexosaminidase, OD (405-570), DT808 mouse mast cells, cross-link” value 3.25 OD (405-570). Against it:
- B1 — lower, 3.14 OD (405-570)
- B3 — lower, 3.21 OD (405-570)

Point of comparison: B3, “secreted beta-hexosaminidase, OD (405-570), DT808 mouse mast cells, no cross-link” value 1.22 OD (405-570). Against it:
- B1 — lower, 1 OD (405-570)
- B2 — higher, 1.83 OD (405-570)

target: T2, human MDL-1; test: cell-based or functional assay; remark: another data set of the same source

Point of comparison: B1, “decrease of CD62L staining (MFI) of human neutrophils, isotype control treatment minus anti-hMDL-1 treatment” value 142 MFI. Against it:
- B2 — lower, 114 MFI
- B4 — lower, 140 MFI
- B5 — higher, 152 MFI
- B3 — lower, 96.9 MFI

target: T1, hMDL-1-hIG; test: BIAcore SPR; mAb as capture reagent, hMDL-1-hIG as analyte; apparent Kd
Protocol: as §1, §2

Point of comparison: B1, Kd 37.9 nM. Against it:
- B2 — within 1.5-fold, 43 nM
- B3 — 4.4-fold lower, 8.65 nM

target: T2, human MDL-1; test: cell-based or functional assay; remark: another data set of the same source

Point of comparison: B3, “increase in CD11b surface expression on human neutrophils, Mean Fluorescent Intensity as compared to isotype control treatment” value 303 MFI. Against it:
- B1 — higher, 377 MFI
- B2 — higher, 336 MFI
- B4 — higher, 349 MFI
- B5 — higher, 393 MFI

Point of comparison: B2, “increase in CD66b surface expression on human neutrophils, Mean Fluorescent Intensity as compared to isotype control treatment” value 97 MFI. Against it:
- B1 — higher, 107 MFI
- B4 — higher, 110 MFI
- B5 — higher, 109 MFI
- B3 — lower, 90.5 MFI

target: T1, hMDL-1-hIG; test: BIAcore SPR; hMDL-1-hIG as capture antigen on the chip, mAb as analyte; apparent Kd
Protocol: as §1

Point of comparison: B6, Kd 0.207 nM. Against it:
- B7 — 120-fold higher, 25.2 nM
- B4 — within 1.5-fold, 0.247 nM
- B5 — 6.1-fold higher, 1.27 nM

target: T2, human MDL-1; test: cell-based or functional assay; remark: another data set of the same source

Point of comparison: B8, “secreted beta-hexosaminidase, OD (405-570), DT808 mouse mast cells, cross-link” value 3.28 OD (405-570). Against it:
- B6 — lower, 3.25 OD (405-570)
- B7 — lower, 3.17 OD (405-570)
- B4 — higher, 3.36 OD (405-570)
- B5 — lower, 3.23 OD (405-570)

Point of comparison: B4, “secreted beta-hexosaminidase, OD (405-570), DT808 mouse mast cells, no cross-link” value 3.46 OD (405-570). Against it:
- B6 — lower, 2.66 OD (405-570)
- B7 — lower, 3.32 OD (405-570)
- B8 — lower, 3.17 OD (405-570)
- B5 — lower, 3.39 OD (405-570)

target: T1, hMDL-1-hIG; test: BIAcore SPR; hMDL-1-hIG as capture antigen on the chip, mAb as analyte
Protocol: as §1

Point of comparison: B4, koff 6.8e-05 s⁻¹. Against it:
- B6 — within 1.5-fold, 7.3e-05 s⁻¹
- B7 — 24-fold higher, 0.0016 s⁻¹
- B5 — 12-fold higher, 0.000817 s⁻¹

Point of comparison: B6, kon 354000 M⁻¹ s⁻¹. Against it:
- B7 — 5.6-fold lower, 63000 M⁻¹ s⁻¹
- B4 — within 1.5-fold, 277000 M⁻¹ s⁻¹
- B5 — 1.8-fold higher, 644000 M⁻¹ s⁻¹

Source: patent publication US8153134 (SCHERING, dated 2012)
